Laboratory results published in publication PMC9482650, “Quantitative fragmentomics allow affinity mapping of interactomes” (Nature Communications, 2022).

Key:
Assay in all cases: holdup assay
Design in all cases: key: below the threshold = too weak to quantify, mostly under pKd 3.1 to 4
Conditions in all cases: plain residues with an end cap or a label only (N-terminal biotin on a linker: ttds)
AHNAK1, Q09666 = molecular target: AHNAK1, Q09666
DLG1_3, Q12959 = molecular target: DLG1_3, Q12959
FRMPD1, Q5SYB0 = molecular target: T1, FRMPD1, Q5SYB0
T1 sequence (Q5SYB0 52-145, limits assumed, looked up): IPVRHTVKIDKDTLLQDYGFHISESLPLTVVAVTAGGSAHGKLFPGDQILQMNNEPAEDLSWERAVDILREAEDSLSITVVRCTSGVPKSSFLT

FRMPD2_1, Q68DX3 = molecular target: FRMPD2_1, Q68DX3
GRID2IP_1, A4D2P6 = molecular target: GRID2IP_1, A4D2P6
GRIP1_2, Q9Y3R0 = molecular target: T2, GRIP1_2, Q9Y3R0
T2 sequence (Q9Y3R0 145-248, limits assumed, looked up): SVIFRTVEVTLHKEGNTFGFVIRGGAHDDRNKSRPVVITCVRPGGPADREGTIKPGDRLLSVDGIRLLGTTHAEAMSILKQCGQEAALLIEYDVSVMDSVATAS

GRIP2_7, Q9C0E4 = molecular target: GRIP2_7, Q9C0E4
HTRA4, P83105 = molecular target: T3, HTRA4, P83105
T3 sequence (P83105 378-476, limits assumed, looked up): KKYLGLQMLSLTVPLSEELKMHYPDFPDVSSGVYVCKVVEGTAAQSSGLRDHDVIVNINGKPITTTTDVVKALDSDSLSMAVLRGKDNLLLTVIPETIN

IL16_1, Q14005 = molecular target: IL16_1, Q14005
IL16_4, Q14005 = molecular target: IL16_4, Q14005
Inadl_1, Q8NI35 = molecular target: Inadl_1, Q8NI35
Inadl_2, Q8NI35 = molecular target: Inadl_2, Q8NI35
Inadl_3, Q8NI35 = molecular target: Inadl_3, Q8NI35
MAGI1_1, Q96QZ7 = molecular target: MAGI1_1, Q96QZ7
MAGI2_3, Q86UL8 = molecular target: MAGI2_3, Q86UL8
MAGI2_4, Q86UL8 = molecular target: MAGI2_4, Q86UL8
MAGI2_5, Q86UL8 = molecular target: MAGI2_5, Q86UL8
MPDZ_12, O75970 = molecular target: T4, MPDZ_12, O75970
T4 sequence (O75970 1857-1958, limits assumed, looked up): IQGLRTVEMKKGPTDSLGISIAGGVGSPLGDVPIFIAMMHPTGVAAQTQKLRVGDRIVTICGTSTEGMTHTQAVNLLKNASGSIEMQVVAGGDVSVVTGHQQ

MPDZ_5, O75970 = molecular target: T5, MPDZ_5, O75970
T5 sequence (O75970 695-796, limits assumed, looked up): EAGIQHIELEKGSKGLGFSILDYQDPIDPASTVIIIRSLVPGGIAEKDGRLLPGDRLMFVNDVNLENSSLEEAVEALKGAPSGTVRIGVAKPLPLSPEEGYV

MPP7, Q5T2T1 = molecular target: T6, MPP7, Q5T2T1
T6 sequence (Q5T2T1 134-230, limits assumed, looked up): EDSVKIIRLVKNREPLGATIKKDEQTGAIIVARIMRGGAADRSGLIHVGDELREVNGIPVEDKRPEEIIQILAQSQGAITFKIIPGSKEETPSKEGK

NHERF2_2, Q15599 = molecular target: NHERF2_2, Q15599
NHERF3_3, Q5T2W1 = molecular target: T7, NHERF3_3, Q5T2W1
T7 sequence (Q5T2W1 238-333, limits assumed, looked up): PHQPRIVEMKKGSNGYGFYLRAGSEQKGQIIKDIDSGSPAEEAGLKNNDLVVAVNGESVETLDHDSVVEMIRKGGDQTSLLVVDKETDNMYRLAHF

NHERF4_2, Q86UT5 = molecular target: NHERF4_2, Q86UT5
PDZRN4_1, Q6ZMN7 = molecular target: PDZRN4_1, Q6ZMN7
SNTB1, Q13884 = molecular target: T8, SNTB1, Q13884
T8 sequence (Q13884 107-205, limits assumed, looked up): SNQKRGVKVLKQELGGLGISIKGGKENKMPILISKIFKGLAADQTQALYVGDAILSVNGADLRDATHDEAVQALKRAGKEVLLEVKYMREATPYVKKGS

TIAM2, Q8IVF5 = molecular target: T9, TIAM2, Q8IVF5
T9 sequence (Q8IVF5 885-986, limits assumed, looked up): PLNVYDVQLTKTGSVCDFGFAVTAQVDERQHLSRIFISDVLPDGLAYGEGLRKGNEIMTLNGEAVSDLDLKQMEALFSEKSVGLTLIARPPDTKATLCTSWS

TJP2_1, Q9UDY2 = molecular target: TJP2_1, Q9UDY2
TJP3_3, O95049 = molecular target: T10, TJP3_3, O95049
T10 sequence (O95049 375-456, limits assumed, looked up): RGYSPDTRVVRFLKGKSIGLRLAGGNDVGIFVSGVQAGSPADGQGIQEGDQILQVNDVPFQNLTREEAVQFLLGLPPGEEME

Sequence of FRMPD2_1, Q68DX3 (Q68DX3 770-861): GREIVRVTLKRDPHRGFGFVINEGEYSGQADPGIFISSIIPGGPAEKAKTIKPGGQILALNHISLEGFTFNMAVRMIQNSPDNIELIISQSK
Sequence of Inadl_1, Q8NI35 (Q8NI35 113-229): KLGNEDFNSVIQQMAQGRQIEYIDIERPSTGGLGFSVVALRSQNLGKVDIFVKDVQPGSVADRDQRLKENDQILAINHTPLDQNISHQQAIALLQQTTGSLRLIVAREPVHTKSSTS
Sequence of GRID2IP_1, A4D2P6 (A4D2P6 1-87): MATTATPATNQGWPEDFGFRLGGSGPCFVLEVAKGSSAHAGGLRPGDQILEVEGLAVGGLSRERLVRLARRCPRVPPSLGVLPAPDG
Sequence of NHERF2_2, Q15599 (Q15599 142-238): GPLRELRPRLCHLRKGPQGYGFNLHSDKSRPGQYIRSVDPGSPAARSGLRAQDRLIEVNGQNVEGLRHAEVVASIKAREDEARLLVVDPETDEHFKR
Sequence of IL16_4, Q14005 (Q14005 1229-1329): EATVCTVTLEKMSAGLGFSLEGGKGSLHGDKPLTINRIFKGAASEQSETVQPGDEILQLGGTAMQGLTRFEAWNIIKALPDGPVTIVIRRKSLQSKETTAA
Sequence of PDZRN4_1, Q6ZMN7 (Q6ZMN7 213-318): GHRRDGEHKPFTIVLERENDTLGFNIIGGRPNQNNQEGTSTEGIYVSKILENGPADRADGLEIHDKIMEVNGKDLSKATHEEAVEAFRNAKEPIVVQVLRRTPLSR
Sequence of MAGI2_3, Q86UL8 (Q86UL8 600-682): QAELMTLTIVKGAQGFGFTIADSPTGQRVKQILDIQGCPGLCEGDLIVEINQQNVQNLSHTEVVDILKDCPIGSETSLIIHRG
Sequence of MAGI1_1, Q96QZ7 (Q96QZ7 1-106): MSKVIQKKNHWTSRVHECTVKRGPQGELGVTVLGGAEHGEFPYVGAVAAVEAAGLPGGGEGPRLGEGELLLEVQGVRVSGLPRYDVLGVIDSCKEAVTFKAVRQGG
Sequence of Inadl_3, Q8NI35 (Q8NI35 359-469): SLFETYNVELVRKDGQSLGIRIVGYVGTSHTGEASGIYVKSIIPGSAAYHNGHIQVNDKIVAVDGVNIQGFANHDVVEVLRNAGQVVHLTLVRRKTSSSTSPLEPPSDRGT
Sequence of AHNAK1, Q09666 (Q09666 4-100): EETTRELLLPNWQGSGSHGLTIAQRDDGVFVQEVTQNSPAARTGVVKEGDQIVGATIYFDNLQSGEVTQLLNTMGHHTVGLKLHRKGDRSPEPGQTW
Sequence of IL16_1, Q14005 (Q14005 210-306): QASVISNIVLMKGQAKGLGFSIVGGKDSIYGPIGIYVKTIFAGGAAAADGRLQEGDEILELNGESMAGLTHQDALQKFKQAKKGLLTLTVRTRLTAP
Sequence of MAGI2_4, Q86UL8 (Q86UL8 772-865): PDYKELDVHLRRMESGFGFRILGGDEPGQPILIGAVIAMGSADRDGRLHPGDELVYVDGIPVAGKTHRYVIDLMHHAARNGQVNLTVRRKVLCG
Sequence of DLG1_3, Q12959 (Q12959 457-571): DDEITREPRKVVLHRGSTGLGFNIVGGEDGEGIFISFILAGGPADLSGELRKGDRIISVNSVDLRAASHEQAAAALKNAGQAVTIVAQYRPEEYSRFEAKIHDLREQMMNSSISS
Sequence of MAGI2_5, Q86UL8 (Q86UL8 915-1017): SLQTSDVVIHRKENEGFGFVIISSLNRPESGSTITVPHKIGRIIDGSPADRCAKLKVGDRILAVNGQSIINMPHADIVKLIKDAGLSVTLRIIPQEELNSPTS
Sequence of Inadl_2, Q8NI35 (Q8NI35 238-335): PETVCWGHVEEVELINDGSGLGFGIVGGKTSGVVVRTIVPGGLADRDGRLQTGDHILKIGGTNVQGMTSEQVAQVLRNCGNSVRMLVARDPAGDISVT
Sequence of GRIP2_7, Q9C0E4 (Q9C0E4 934-1023): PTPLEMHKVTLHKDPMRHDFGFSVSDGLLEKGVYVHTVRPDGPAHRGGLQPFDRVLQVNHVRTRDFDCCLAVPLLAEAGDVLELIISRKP
Sequence of TJP2_1, Q9UDY2 (Q9UDY2 24-128): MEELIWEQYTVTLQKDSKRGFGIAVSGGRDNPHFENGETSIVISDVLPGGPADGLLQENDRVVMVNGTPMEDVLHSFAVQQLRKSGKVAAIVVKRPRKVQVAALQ
Sequence of NHERF4_2, Q86UT5 (Q86UT5 220-308): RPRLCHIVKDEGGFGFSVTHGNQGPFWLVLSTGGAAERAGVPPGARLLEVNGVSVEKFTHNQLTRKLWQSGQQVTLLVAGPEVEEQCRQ

B1: ARHGEF26, Q96DR7 (peptide)
chain: GRLLGLETNV
pKd (AHNAK1, Q09666): below the threshold
pKd (DLG1_3, Q12959): 4.92
pKd (FRMPD1, Q5SYB0): below the threshold
pKd (FRMPD2_1, Q68DX3): below the threshold
pKd (GRID2IP_1, A4D2P6): below the threshold
pKd (GRIP1_2, Q9Y3R0): below the threshold
pKd (GRIP2_7, Q9C0E4): below the threshold
pKd (HTRA4, P83105): below the threshold
pKd (IL16_1, Q14005): 3.78
pKd (IL16_4, Q14005): below the threshold
pKd (Inadl_1, Q8NI35): below the threshold
pKd (Inadl_2, Q8NI35): below the threshold
pKd (Inadl_3, Q8NI35): 3.58
pKd (MAGI1_1, Q96QZ7): below the threshold
pKd (MAGI2_3, Q86UL8): 3.9
pKd (MAGI2_4, Q86UL8): 4.02
pKd (MAGI2_5, Q86UL8): below the threshold
pKd (MPDZ_12, O75970): below the threshold
pKd (MPDZ_5, O75970): below the threshold
pKd (MPP7, Q5T2T1): below the threshold
pKd (NHERF2_2, Q15599): below the threshold
pKd (NHERF3_3, Q5T2W1): below the threshold
pKd (NHERF4_2, Q86UT5): below the threshold
pKd (PDZRN4_1, Q6ZMN7): 3.48
pKd (SNTB1, Q13884): 4.79
pKd (TIAM2, Q8IVF5): below the threshold
pKd (TJP2_1, Q9UDY2): below the threshold
pKd (TJP3_3, O95049): below the threshold
